Experimental findings from patent US20240116985A1, “STAPLED PEPTIDES AND METHODS THEREOF” (priority 2020, published 2024) are described below.

B1: I-2586 (peptide)
peptide: Ac-[αAllylPro]D[tBuAla][B5]D[Phe(3-COOH)]QAFL[SPip2][Phe(2-CF3)][Bta]A-NH2
modifications: staple 1-4, 4-11; not fully specified; printed as Ac-PL3-Asp-Npg-B5-Asp-3COOHF-Gln-Ala-Phe-Leu-SPip2-2F3MeF-BztA-Ala-NH2; also: later-eluting staple isomer composition
B2: I-2575 (peptide)
peptide: Ac-P[R5]ED[tBuAla][B5(25)]D[Phe(3-COOH)]AAFL[PyrS2″][Phe(2-CF3)][Bta]Q-NH2
modifications: staple 6-13, 2-6 (inferred); not fully specified; printed as Ac-Pro-R5-Glu-Asp-Npg-B5-Asp-3COOHF-Ala-Ala-Phe-Leu-PyrS2-2F3MeF-BztA-Gln-NH2
B3: I-2587 (peptide)
peptide: Ac-[αAllylPro]D[tBuAla][B5]D[Phe(3-COOH)]QAFL[SPip3][Phe(2-CF3)][Bta]A-NH2
modifications: staple 1-4, 4-11; not fully specified; printed as Ac-PL3-Asp-Npg-B5-Asp-3COOHF-Gln-Ala-Phe-Leu-SPip3-2F3MeF-BztA-Ala-NH2
B4: I-2585 (peptide)
peptide: Ac-[αAllylPro]D[tBuAla][B5]D[Phe(3-COOH)]QAFL[SPip2][Phe(2-CF3)][Bta]A-NH2
modifications: staple 1-4, 4-11; not fully specified; printed as Ac-PL3-Asp-Npg-B5-Asp-3COOHF-Gln-Ala-Phe-Leu-SPip2-2F3MeF-BztA-Ala-NH2; also: earlier-eluting staple isomer composition
B5: I-2591 (peptide)
peptide: Ac-[αAllylPro]D[tBuAla][B5]D[Phe(3-COOH)]QAFL[SPip1][3Thi][Bta]A-NH2
modifications: staple 1-4, 4-11; not fully specified; printed as Ac-PL3-Asp-Npg-B5-Asp-3COOHF-Gln-Ala-Phe-Leu-SPip1-3Thi-BztA-Ala-NH2
B6: I-2584 (peptide)
peptide: Ac-[αAllylPro]D[tBuAla][B5]D[Phe(3-COOH)]QAFL[SPip1][Phe(2-CF3)][Bta]A-NH2
modifications: staple 1-4, 4-11; not fully specified; printed as Ac-PL3-Asp-Npg-B5-Asp-3COOHF-Gln-Ala-Phe-Leu-SPip1-2F3MeF-BztA-Ala-NH2

Broadly, the IC50 is the concentration that inhibits the measured activity by half. Low readings indicate higher potency, high ones lower potency.

Starred links: 1 amine or outer side, 2 acyl side, 3 side chain; linkers in the order of their positions; H or OH if unused. Positions of bridges follow the written chain, without caps; N, C: chain ends. Non-standard residues stand in square brackets, D forms with d. Primed or numbered codes have the meaning given here. *: point of attachment. PyrS2″ = (S)-3-amino-1-((pent-4-en-1-yloxy)carbonyl)pyrrolidine-3-carboxylic acid (stapling residue), C=CCCCOC(=O)N1CC[C@@](N[*:1])(C(=O)[*:2])C1; B5(5) = 2,2-bis(4-pentenyl)glycine, 2-amino-2-(pent-4-en-1-yl)hept-6-enoic acid (stitching residue), C=CCCCC(CCCC=C)(N[*:1])C(=O)[*:2]; PyrS2 = (S)-3-amino-1-((pent-4-en-1-yloxy)carbonyl)pyrrolidine-3-carboxylic acid, C=CCCCOC(=O)N1CC[C@@](N[*:1])(C(=O)[*:2])C1; SPip2 = 4-amino-1-((pent-4-en-1-yloxy)carbonyl)piperidine-4-carboxylic acid, C=CCCCOC(=O)N1CCC(N[*:1])(C(=O)[*:2])CC1; SPip3 = 4-amino-1-((hex-5-en-1-yloxy)carbonyl)piperidine-4-carboxylic acid, C=CCCCCOC(=O)N1CCC(N[*:1])(C(=O)[*:2])CC1; SPip1 = 4-amino-1-((but-3-en-1-yloxy)carbonyl)piperidine-4-carboxylic acid, C=CCCOC(=O)N1CCC(N[*:1])(C(=O)[*:2])CC1; B5(25) = 2-amino-2-(pent-4-en-1-yl)hept-6-enoic acid (stitching residue), C=CCCCC(CCCC=C)(N[*:1])C(=O)[*:2]; B5 = 2-amino-2-(pent-4-en-1-yl)hept-6-enoic acid, C=CCCCC(CCCC=C)(N[*:1])C(=O)[*:2]; Phe(3-COOH) = N[C@@H](Cc1cccc(C(=O)O)c1)C(=O)O; Phe(2-CF3) = N[C@@H](Cc1ccccc1C(F)(F)F)C(=O)O; Phe(2-Cl) = N[C@@H](Cc1ccccc1Cl)C(=O)O; Bta = N[C@@H](Cc1csc2ccccc12)C(=O)O; αAllylPro = C=CC[C@@]1(C(=O)O)CCCN1; tBuAla = CC(C)(C)C[C@H](N)C(=O)O; 3Thi = N[C@@H](Cc1ccsc1)C(=O)O; R5 = C=CCCC[C@@](C)(N)C(=O)O; Propioloyl = C#CC(=O)*; Aib = CC(C)(N)C(=O)O

Sequence of B-cat-Halo (beta-catenin HaloTag NanoBRET construct expressed in HEK293 cells) (P35222 whole entry): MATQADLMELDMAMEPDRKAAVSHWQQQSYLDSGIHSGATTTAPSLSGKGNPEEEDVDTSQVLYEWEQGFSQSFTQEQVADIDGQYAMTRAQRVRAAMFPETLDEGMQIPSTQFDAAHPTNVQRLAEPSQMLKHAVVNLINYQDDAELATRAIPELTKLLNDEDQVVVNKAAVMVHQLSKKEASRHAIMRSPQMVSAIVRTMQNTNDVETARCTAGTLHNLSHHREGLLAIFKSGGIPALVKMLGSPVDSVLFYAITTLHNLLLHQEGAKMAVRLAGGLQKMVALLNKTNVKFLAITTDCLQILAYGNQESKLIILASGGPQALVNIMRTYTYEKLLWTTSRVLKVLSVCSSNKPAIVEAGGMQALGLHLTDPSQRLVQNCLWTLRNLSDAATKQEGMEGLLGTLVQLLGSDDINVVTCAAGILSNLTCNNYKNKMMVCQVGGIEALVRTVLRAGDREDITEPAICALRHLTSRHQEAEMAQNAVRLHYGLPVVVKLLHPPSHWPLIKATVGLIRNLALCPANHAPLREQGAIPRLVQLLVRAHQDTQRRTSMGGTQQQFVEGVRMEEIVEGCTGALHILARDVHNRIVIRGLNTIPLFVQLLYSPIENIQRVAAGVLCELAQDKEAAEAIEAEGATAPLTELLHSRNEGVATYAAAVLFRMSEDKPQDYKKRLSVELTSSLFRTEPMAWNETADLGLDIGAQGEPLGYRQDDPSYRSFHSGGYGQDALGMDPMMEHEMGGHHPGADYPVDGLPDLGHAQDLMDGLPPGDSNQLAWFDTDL

One test addresses B-cat-Halo (beta-catenin HaloTag NanoBRET construct expressed in HEK293 cells) (UniProt P35222). In words: NanoBRET in HEK293 cells, Bcat-Halo / TCF4-Luc (competitor TCF4-Luc); absolute IC50. (In general: Bioluminescence resonance energy transfer reports proximity on the nanometre scale.)
The molecule Ac-[αAllylPro]D[tBuAla][B5(5)]D[Phe(3-COOH)]AAFL[PyrS2][Phe(2-CF3)][Bta]QFA-NH2 (staple 1-4, 4-11) [I-2400] showed an IC50 of 2500 nM.

Regarding Ac-[αAllylPro]D[tBuAla][B5(5)]NT[Aib]AFH[PyrS2″][3Thi][Bta]Q-NH2 (staple 1-4, 4-11) [I-2410], the half-maximal inhibitory concentration (IC50) was > 20000 nM.

Ac-[αAllylPro]D[tBuAla][B5(5)]NT[Aib]AFT[PyrS2][3Thi][Bta]Q-NH2 (staple 1-4, 4-11) [I-2409] showed an IC50 of 50000 nM.

Ac-[αAllylPro]D[tBuAla][B5(5)]D[Phe(3-COOH)]AAFL[PyrS2][Phe(2-CF3)][Bta]QAA-NH2 (staple 1-4, 4-11) [I-2399] yielded an IC50 of 2800 nM.

For Ac-[αAllylPro]D[tBuAla][B5(5)]D[Phe(3-COOH)]AAFL[PyrS2][Phe(2-CF3)][Bta]QVA-NH2 (staple 1-4, 4-11) [I-2401], the half-maximal inhibitory concentration (IC50) is 4400 nM.

Regarding Propioloyl-[αAllylPro]D[tBuAla][B5(5)]D[Phe(3-COOH)]AAFL[PyrS2″][Phe(2-Cl)][Bta]A-NH2 (staple 1-4, 4-11) [I-2403], the 50% inhibitory concentration (IC50) was > 20000 nM.

In the case of Ac-[αAllylPro]D[tBuAla][B5(5)]D[Phe(3-COOH)]AAFL[PyrS2][Phe(2-CF3)][Bta]QL[dT]-NH2 (staple 1-4, 4-11) [I-2397], the IC50 turned out to be 7800 nM. In other words, the single-digit micromolar range.

In a further test the target is full-length beta-Catenin (Uniprot ID P35222) (Homo sapiens (Human)) (UniProt P35222). In words: fluorescence polarization competition; full-length beta-catenin, competitor 5FAM-TCF4(10-53) probe. (In general: Polarisation of emitted light reports the rotation of a fluorescent probe.)
Target sequence in this assay (P35222 2-781 limits assumed): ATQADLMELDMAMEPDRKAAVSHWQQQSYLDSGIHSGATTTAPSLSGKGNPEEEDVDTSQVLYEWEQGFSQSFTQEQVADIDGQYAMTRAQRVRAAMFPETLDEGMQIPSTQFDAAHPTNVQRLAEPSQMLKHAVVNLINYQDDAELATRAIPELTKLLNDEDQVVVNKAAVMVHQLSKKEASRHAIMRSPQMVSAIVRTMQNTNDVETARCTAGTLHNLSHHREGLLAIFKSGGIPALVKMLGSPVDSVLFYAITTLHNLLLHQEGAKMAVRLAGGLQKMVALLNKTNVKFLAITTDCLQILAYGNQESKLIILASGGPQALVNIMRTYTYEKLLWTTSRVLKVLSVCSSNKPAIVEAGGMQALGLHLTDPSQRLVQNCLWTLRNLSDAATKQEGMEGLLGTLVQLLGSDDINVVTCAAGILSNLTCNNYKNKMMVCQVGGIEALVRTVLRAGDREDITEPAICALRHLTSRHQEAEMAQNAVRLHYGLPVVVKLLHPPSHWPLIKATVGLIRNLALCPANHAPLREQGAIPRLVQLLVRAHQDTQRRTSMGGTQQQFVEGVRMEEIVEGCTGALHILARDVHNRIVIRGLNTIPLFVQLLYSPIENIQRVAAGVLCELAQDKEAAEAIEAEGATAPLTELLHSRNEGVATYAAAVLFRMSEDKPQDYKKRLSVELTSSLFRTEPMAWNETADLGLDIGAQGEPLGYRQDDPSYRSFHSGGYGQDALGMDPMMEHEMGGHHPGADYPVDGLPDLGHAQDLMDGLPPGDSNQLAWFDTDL
For Ac-[αAllylPro]D[tBuAla][B5(5)]D[Phe(3-COOH)]AAFL[PyrS2][Phe(2-CF3)][Bta]QFA-NH2 (staple 1-4, 4-11) [I-2400], the IC50 turned out to be 142 nM.

The molecule Ac-[αAllylPro]D[tBuAla][B5(5)]NT[Aib]AFH[PyrS2″][3Thi][Bta]Q-NH2 (staple 1-4, 4-11) [I-2410] returned an IC50 of 304 nM. Compared with the last molecule, the IC50 is about 2.1-fold higher.

On to Ac-[αAllylPro]D[tBuAla][B5(5)]NT[Aib]AFT[PyrS2][3Thi][Bta]Q-NH2 (staple 1-4, 4-11) [I-2409], for which the IC50 stood at 397 nM.

Ac-[αAllylPro]D[tBuAla][B5(5)]D[Phe(3-COOH)]AAFL[PyrS2][Phe(2-CF3)][Bta]QAA-NH2 (staple 1-4, 4-11) [I-2399] showed a half-inhibitory concentration (IC50) of 17 nM. Against the preceding molecule, the IC50 is about 23-fold lower.

Regarding Ac-[αAllylPro]D[tBuAla][B5(5)]D[Phe(3-COOH)]AAFL[PyrS2][Phe(2-CF3)][Bta]QVA-NH2 (staple 1-4, 4-11) [I-2401], the IC50 was determined as 37 nM.

Molecule Propioloyl-[αAllylPro]D[tBuAla][B5(5)]D[Phe(3-COOH)]AAFL[PyrS2″][Phe(2-Cl)][Bta]A-NH2 (staple 1-4, 4-11) [I-2403] registered an IC50 of 12 nM.

Ac-[αAllylPro]D[tBuAla][B5(5)]D[Phe(3-COOH)]AAFL[PyrS2][Phe(2-CF3)][Bta]QL[dT]-NH2 (staple 1-4, 4-11) [I-2397]: the IC50 turned out to be 53 nM.

The target is the same in another test. The experiment in a line: fluorescence polarization competition; full-length beta-catenin, 5FAM-TCF4 10-53 probe as competitor.
Target sequence in this assay (P35222 whole entry, one chain of several): as the sequence (P35222 whole entry) above
With B1, the IC50 came out at 345 nM.

B2 gave an IC50 of 8160 nM.

B3 came in with an IC50 of 273 nM. Compared with the last molecule, the IC50 is about 30-fold lower.

On to B4, for which the IC50 came to 452 nM.

In turn, B5 showed an IC50 of 602 nM.

Molecule Ac-[R5]AD[tBuAla][B5(25)]D[Phe(3-COOH)]AAFL[PyrS2″][Phe(2-CF3)][Bta]Q-NH2 (staple 1-5, 5-12 (inferred); also: staple -CH=CH- reduced to -CH2-CH2-) [I-2574] returned an IC50 of 2960 nM.

Molecule B6 came in with an IC50 of 1840 nM.
